Measurements published in publication PMC3715405.

Target: T1, WT tetherin (human tetherin internally tagged with an HA epitope at amino acid 155) (human), Q10589
T1 chain: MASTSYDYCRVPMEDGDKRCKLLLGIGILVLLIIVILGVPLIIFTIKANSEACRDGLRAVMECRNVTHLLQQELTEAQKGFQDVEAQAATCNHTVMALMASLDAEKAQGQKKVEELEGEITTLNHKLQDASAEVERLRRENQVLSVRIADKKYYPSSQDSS
Assay: non-reducing SDS-PAGE and western blot; lysates of 293T cells cotransfected with HIV-1 ΔVpu proviral plasmid and tetherin plasmids, lysed in non-reducing buffer, probed with anti-HA; shows disulphide-linked dimers
Conditions: remark: other sources report otherwise

stoichiometry N: 2
B1: WT tetherin (human tetherin internally tagged with an HA epitope at amino acid 155), Q10589 1-161 (natural protein)
chain: MASTSYDYCRVPMEDGDKRCKLLLGIGILVLLIIVILGVPLIIFTIKANSEACRDGLRAVMECRNVTHLLQQELTEAQKGFQDVEAQAATCNHTVMALMASLDAEKAQGQKKVEELEGEITTLNHKLQDASAEVERLRRENQVLSVRIADKKYYPSSQDSS
modifications: here or on the partner: glycosylphosphatidylinositol (GPI) membrane anchor at the C-terminus; heterogeneously glycosylated; glycosylphosphatidylinositol (GPI) membrane anchor at the C-terminus; heterogeneously glycosylated
